Columns and labels:
[1] = molecular target: rat ANP receptor (NPR-A) (rat) (UniProt P18910); assay: cell-based or functional assay
[2] = molecular target: rat CNP receptor (NPR-B) (rat) (UniProt P16067); assay: cell-based or functional assay
rat CNP receptor (NPR-B) (rat), sequence (P16067 17-1047): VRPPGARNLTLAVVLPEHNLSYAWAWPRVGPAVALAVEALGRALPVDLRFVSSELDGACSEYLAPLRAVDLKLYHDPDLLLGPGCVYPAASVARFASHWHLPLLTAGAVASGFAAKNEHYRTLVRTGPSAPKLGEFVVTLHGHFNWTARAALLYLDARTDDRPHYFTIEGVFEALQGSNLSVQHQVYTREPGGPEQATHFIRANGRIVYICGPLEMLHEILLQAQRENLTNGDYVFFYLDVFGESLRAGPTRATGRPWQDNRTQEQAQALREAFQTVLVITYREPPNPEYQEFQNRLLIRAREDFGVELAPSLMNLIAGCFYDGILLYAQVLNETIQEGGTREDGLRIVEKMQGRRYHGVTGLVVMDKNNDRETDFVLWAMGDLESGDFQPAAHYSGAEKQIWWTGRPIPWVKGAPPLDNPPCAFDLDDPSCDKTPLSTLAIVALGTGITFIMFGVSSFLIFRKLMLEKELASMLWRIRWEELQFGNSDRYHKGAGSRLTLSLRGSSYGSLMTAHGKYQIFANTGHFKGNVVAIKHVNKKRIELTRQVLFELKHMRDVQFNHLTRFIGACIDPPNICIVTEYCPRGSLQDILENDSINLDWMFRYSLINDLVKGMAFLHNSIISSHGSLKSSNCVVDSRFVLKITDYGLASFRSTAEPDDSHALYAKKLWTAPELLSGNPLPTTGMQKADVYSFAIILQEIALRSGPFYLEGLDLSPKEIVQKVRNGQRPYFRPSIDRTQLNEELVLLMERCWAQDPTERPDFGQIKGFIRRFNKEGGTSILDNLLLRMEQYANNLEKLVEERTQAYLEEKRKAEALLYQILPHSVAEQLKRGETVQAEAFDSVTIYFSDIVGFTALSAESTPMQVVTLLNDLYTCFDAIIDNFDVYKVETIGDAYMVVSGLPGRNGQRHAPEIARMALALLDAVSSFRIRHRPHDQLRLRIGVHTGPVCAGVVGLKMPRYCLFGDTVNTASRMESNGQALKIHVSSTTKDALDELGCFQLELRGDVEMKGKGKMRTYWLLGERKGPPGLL

rat ANP receptor (NPR-A) (rat), sequence (P18910 29-1057): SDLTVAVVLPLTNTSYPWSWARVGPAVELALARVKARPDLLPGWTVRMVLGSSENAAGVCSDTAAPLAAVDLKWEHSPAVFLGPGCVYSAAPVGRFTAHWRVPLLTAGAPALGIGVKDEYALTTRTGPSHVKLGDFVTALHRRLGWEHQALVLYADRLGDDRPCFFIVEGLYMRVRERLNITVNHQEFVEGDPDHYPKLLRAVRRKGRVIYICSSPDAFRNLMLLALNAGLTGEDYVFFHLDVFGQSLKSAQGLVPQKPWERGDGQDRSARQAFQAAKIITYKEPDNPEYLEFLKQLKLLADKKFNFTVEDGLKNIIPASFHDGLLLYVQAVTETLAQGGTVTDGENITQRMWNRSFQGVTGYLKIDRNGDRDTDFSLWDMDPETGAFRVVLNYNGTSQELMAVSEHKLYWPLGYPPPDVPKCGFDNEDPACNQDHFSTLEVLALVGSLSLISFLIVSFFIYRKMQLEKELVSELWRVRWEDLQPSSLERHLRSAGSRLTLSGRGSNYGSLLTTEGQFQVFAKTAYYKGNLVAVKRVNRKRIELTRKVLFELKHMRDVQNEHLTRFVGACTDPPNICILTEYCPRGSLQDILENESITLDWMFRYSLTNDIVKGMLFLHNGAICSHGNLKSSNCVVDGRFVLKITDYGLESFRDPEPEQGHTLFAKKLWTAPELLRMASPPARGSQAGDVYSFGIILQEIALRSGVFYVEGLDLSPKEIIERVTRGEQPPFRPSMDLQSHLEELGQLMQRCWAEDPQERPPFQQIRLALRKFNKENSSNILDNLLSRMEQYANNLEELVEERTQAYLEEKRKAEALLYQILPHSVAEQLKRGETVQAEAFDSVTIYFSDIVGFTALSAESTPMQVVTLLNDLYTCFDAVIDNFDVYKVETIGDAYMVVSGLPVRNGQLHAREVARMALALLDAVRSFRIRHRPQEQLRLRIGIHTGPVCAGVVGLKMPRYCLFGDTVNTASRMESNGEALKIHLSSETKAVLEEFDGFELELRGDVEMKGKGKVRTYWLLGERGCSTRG

With ANP (Bachem, H-2100) (peptide) as the substance, how does the EC50, fluorescence of cGMP reporter cells [1] read?
The EC50, fluorescence of cGMP reporter cells was 0.22 nM.

How did the EC50, fluorescence of cGMP reporter cells [1] turn out when BNP (Bachem, H-5968) (peptide) was run?
The EC50, fluorescence of cGMP reporter cells was 2.9 nM.

With CNP (Bachem, H-1296) (peptide) as the substance, how does the EC50, luminescence of cGMP reporter cells [2] read?
Its EC50, luminescence of cGMP reporter cells is 0.024 nM.

Source: US20210079056A1
